Test results reported in patent US20040018971A1.

What follows are binders tested against HLA-A*2401 (purified HLA class I molecule) (human) (assay: competition with 125I-labelled standard peptide for purified HLA, gel filtration). Settings: scale: ratio.

relative binding ratio | Binder
0.012 | EYLVPQQGFF [HER2/neu peptide, position 1022, 10 amino acids]
0.0002 | HFNHSGICEL [HER2/neu peptide, position 257, 10 amino acids]
0.0014 | EYLVPQQGF [HER2/neu peptide, position 1022, 9 amino acids]
-0.0003 | GMGAAKGL [HER2/neu peptide, position 1091, 8 amino acids]
0.0044 | GYLYISAW [HER2/neu peptide, position 408, 8 amino acids]
0.0061 | EYVNARHCL [HER2/neu peptide, position 553, 9 amino acids]
-0.0003 | GMGAAKGLQSL [HER2/neu peptide, position 1091, 11 amino acids]
0.012 | IFGSLAFL [HER2/neu peptide, position 370, 8 amino acids]
-0.0003 | EYHADGGKVPI [HER2/neu peptide, position 876, 11 amino acids]

The binders below were run against HLA-A*2401 (human) in the same assay as above. Settings: not given.

relative binding ratio (IC50 of standard peptide / IC50 of test peptide) (ratio to standard peptide) | Binder
0.008 | KWMALESI [HER2/neu peptide, position 887, 8 amino acids]
0.0024 | KYTMRRLL [HER2/neu peptide, position 684, 8 amino acids]
0.0006 | LFEDNYAL [HER2/neu peptide, position 107, 8 amino acids]
0.084 | LYISAWPDSL [HER2/neu peptide, position 410, 10 amino acids]
0.0001 | LMTFGAKPY [HER2/neu peptide, position 915, 9 amino acids]
0.0005 | PYDGIPAREI [HER2/neu peptide, position 922, 10 amino acids]
0.0011 | PMCKGSRCW [HER2/neu peptide, position 197, 9 amino acids]
0.0014 | LFRNPHQALL [HER2/neu peptide, position 485, 10 amino acids]
0.0002 | NWCMQIAKGM [HER2/neu peptide, position 824, 10 amino acids]
0.0006 | LFEDNYALAVL [HER2/neu peptide, position 107, 11 amino acids]
0.17 | PYVSRLLGI [HER2/neu peptide, position 780, 9 amino acids]
0.015 | KWMALESIL [HER2/neu peptide, position 887, 9 amino acids]
0.0076 | LMPYGCLL [HER2/neu peptide, position 800, 8 amino acids]
0.0002 | LFRNPHQAL [HER2/neu peptide, position 485, 9 amino acids]

The binders below were run against HLA-A*2401 (human) (assay: inhibition of 125I-labelled standard peptide binding to purified HLA, gel filtration). Settings: not given.

relative binding ratio (IC50 of standard peptide / IC50 of test peptide) | Binder
-0.0003 | TMRRLLQETEL [HER2/neu peptide, position 686, 11 amino acids]
0.038 | TYLPTNASL [HER2/neu peptide, position 63, 9 amino acids]
-0.0003 | SWLGLRSL [HER2/neu peptide, position 451, 8 amino acids]
0.0036 | SWLGLRSLREL [HER2/neu peptide, position 451, 11 amino acids]
0.12 | SYGVTVWEL [HER2/neu peptide, position 907, 9 amino acids]
0.025 | RWGLLLAL [HER2/neu peptide, position 8, 8 amino acids]
0.0059 | SYLEDVRL [HER2/neu peptide, position 834, 8 amino acids]
0.0002 | RFVVIQNEDL [HER2/neu peptide, position 985, 10 amino acids]
0.0032 | RMARDPQRF [HER2/neu peptide, position 978, 9 amino acids]
0.012 | RYSEDPTVPL [HER2/neu peptide, position 1111, 10 amino acids]
0.018 | RFRELVSEF [HER2/neu peptide, position 968, 9 amino acids]
0.0002 | TFGAKPYDGI [HER2/neu peptide, position 917, 10 amino acids]
0.063 | SYGVTVWELM [HER2/neu peptide, position 907, 10 amino acids]
0.0001 | SMPNPEGRY [HER2/neu peptide, position 281, 9 amino acids]
0.011 | RFTHQSDVW [HER2/neu peptide, position 898, 9 amino acids]
0.32 | SYMPIWKF [HER2/neu peptide, position 609, 8 amino acids]
0.018 | SMPNPEGRYTF [HER2/neu peptide, position 281, 11 amino acids]
1.3 | RWGLLLALL [HER2/neu peptide, position 8, 9 amino acids]

What follows are binders tested against HLA-A*2401 (purified HLA class I molecule) (human) (assay: competition with 125I-labelled probe peptide for purified HLA, gel filtration). Settings: not given.

relative binding ratio (IC50 of standard peptide / IC50 of test peptide) | Binder
0.022 | VYMIMVKCWM [HER2/neu peptide, position 951, 10 amino acids]
-0.0003 | VFQNLQVI [HER2/neu peptide, position 424, 8 amino acids]
0.0009 | YMIMVKCW [HER2/neu peptide, position 952, 8 amino acids]
0.092 | VWSYGVTVWEL [HER2/neu peptide, position 905, 11 amino acids]
0.08 | VWSYGVTVW [HER2/neu peptide, position 905, 9 amino acids]
0.0074 | TYNTDTFESM [HER2/neu peptide, position 273, 10 amino acids]
0.0011 | WMIDSECRPRF [HER2/neu peptide, position 959, 11 amino acids]
0.16 | VYMIMVKCW [HER2/neu peptide, position 951, 9 amino acids]
1.8 | VYMIMVKCWMI [HER2/neu peptide, position 951, 11 amino acids]
-0.0003 | WMALESIL [HER2/neu peptide, position 888, 8 amino acids]
0.0001 | YVMAGVGSPY [HER2/neu peptide, position 772, 10 amino acids]
8.9 | TYLPTNASLSF [HER2/neu peptide, position 63, 11 amino acids]
-0.0003 | VFETLEEI [HER2/neu peptide, position 399, 8 amino acids]

Same assay, conditions: scale: ratio

relative binding ratio | Binder
0.0009 | YMIMVKCW [HER2/neu peptide, position 952, 8 amino acids]
0.0011 | WMIDSECRPRF [HER2/neu peptide, position 959, 11 amino acids]
0.16 | VYMIMVKCW [HER2/neu peptide, position 951, 9 amino acids]
1.8 | VYMIMVKCWMI [HER2/neu peptide, position 951, 11 amino acids]
-0.0003 | WMALESIL [HER2/neu peptide, position 888, 8 amino acids]

Each binder was assayed against HLA-A*2401 (human) (assay: inhibition of 125I probe peptide binding to purified HLA; IC50 standard/IC50 test). Settings: not given.

relative binding ratio | Binder
0.32 | SYMPIWKF [HER2/neu 609-616]
0.0002 | TFGAKPYDGI [HER2/neu 917-926]
-0.0003 | VFQNLQVI [HER2/neu 424-431]
0.038 | TYLPTNASL [HER2/neu 63-71]
0.08 | VWSYGVTVW [HER2/neu 905-913]
-0.0003 | TMRRLLQETEL [HER2/neu 686-696]
8.9 | TYLPTNASLSF [HER2/neu 63-73]
0.092 | VWSYGVTVWEL [HER2/neu 905-915]
-0.0003 | VFETLEEI [HER2/neu 399-406]
